Laboratory results as given in US20030108935, “Probing binding interactions between molecules and nucleic acids by unzipping a nucleic acid molecule double helix” (published 2003).

How the values were obtained:
[1] = system: EcoRI restriction endonuclease; conditions: highest Ka measured in this report; optical-trap unzipping (UFAPA); 10 mM HEPES pH 7.6, 1 mM EDTA, no Mg2+, 106-262 mM Na+, 23 C; Ka decreases with Na+ …
[2] = target: T1, BsoBI restriction endonuclease (UniProt P70985 P70985:2-323); assay: optical-trap unzipping, dynamic force spectroscopy: f_beta 4.04 +/- 0.14 pN, ln(toff in s) 4.98 +/- 0.27, N=243; BsoBI 0.7 nM, 50 mM Na phosphate pH 7.0, 50 mM; conditions: tags: New England BioLabs, commercial grade, used without further purification; chain copies: 2 (stated, 72 kD dimer); label: digoxigenin and biotin (via anchoring segment and insert duplex)
T1 sequence: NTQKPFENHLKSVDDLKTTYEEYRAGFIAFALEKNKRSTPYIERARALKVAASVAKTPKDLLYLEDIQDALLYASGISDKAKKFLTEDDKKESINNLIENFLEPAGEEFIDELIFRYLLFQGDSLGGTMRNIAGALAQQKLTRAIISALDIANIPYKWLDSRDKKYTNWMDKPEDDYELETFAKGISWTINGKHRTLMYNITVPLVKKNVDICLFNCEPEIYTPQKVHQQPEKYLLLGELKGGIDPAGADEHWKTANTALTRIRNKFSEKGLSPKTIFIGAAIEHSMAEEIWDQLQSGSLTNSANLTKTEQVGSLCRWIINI
Method: (§1) Unzipping Buffer Conditions. Experiments with BsoBI and XhoI were performed at room temperature (23° C.) in a buffer containing 50 mM sodium phosphate buffer pH 7.0, 50 mM NaCl, 0.02% Tween-20, 10 mM EDTA. To facilitate better comparisons of future EcoRI results with previously reported results, mapping and equilibrium constants studies of EcoRI were performed at room temperature (23° C.) in a buffer containing 10 mM HEPES, pH 7.6, 1 mM EDTA, 50 μM DTT, 100 μg/ml BSA, 500 μg/ml Blotting Grade Blocker (Bio-Rad) and NaCl added to produce total Na+concentrations of 106 to 262 mM. […] The Hepes buffer is similar to the buffer used by Ha et al., “Role of the Hydrophobic Effect in Stability of Site-Specific Protein-DNA Complexes,” J. Mol. Biol. 209:801-816 (1989), the entire disclosure of which is hereby incorporated by reference in its entirety, for temperature dependence studies of EcoRI binding to its site on pBR322. Because of the tendency for EcoRI to aggregate at lower ionic strengths (Jen-Jacobson et al., “Coordinate Ion Pair Formation Between EcoRI Endonuclease and DNA,” J. Biol. Chem. 258:14638-14646 (1983), the entire disclosure of which is hereby incorporated by reference in its entirety), the EcoRI mapping data were taken at 131 mM total Na+ concentration. […]

[3] = target: T1, BsoBI restriction endonuclease; assay: optical-trap unzipping, dynamic force spectroscopy: f_beta 4.36 +/- 0.53 pN, ln(toff in s) 7.6 +/- 1.1, N=51; BsoBI 0.7 nM, 50 mM Na phosphate pH 7.0, 50 mM NaCl, 10 mM EDTA, no Mg2+, 23 C; conditions: tags: New England BioLabs, commercial grade, used without further purification; chain copies: 2 (stated, 72 kD dimer); label: digoxigenin and biotin (via anchoring segment and insert duplex)
Method: as §1

In the case of “pBR322 EarI large fragment unzipping segment with single EcoRI site”, the Ka [1] is reported as 1e+11 M⁻¹.

B1: BsoBI alpha site (dsDNA)
DNA 1: TTCCTCGGGAAT
DNA 2: ATTCCCGAGGAA
B1: binds [2].

B2: beta site (BsoBI/XhoI) (dsDNA)
DNA 1: AAACTCGAGAGA
DNA 2: TCTCTCGAGTTT
B2: binds [3].
